Data reported in patent publication US20120020878A1, “FUSOGENIC PROPERTIES OF SAPOSIN C AND RELATED PROTEINS AND PEPTIDES FOR APPLICATION TO TRANSMEMBRANE DRUG DELIVERY SYSTEMS” (CHILDREN'S HOSPITAL MEDICAL CENTER, priority 2008, published 2012).

What was measured:
tumors = assay: Tumor imaging experiments with SapC peptide nanovesicles; format: in vivo, mice; details: peptide in phospholipid (e.g., DOPS) nanovesicles
Source text: The nanovesicles are stable and relatively uncomplicated to make. […] For example, our fluorophore-nanovesicles offer a rapid and precise imaging method for seeing and measuring the change in tumor size of living mice. The tissue-homing, imaging nanovescicles of the present invention enable the researchers and physicians to determine the location and size of a broad range of tumors, including hidden, metastatic tumors.
Several saposin C peptides were synthesized to test their activity in the nanovesicles. […] In one embodiment, the peptide comprises one of more sequences selected from the groups MCS, LCS, and VCS within the peptide sequence. In certain embodiments, amino acids, such as Lys or Cys, are required for the tumor-homing effect.

[1] = system: cultured mouse cortical and hippocampal neurons; assay: Transport into cultured neurons; format: cell-based; details: facilitated by complexes with DOPS liposomes
Procedure: Saposin C can be transported into endosomal and lysosomal compartments using saposin-C liposomes containing long-chain anionic phospholipids. This method can be used for the treatment of neurological diseases including, for example, those in which MVB accumulation contributes to pathology and progression of disease.
Primary Cortical Neuron Cultures—Cortical neurons are cultured in serum-free Neuroblasal medium with B27 supplements as described by Whitmarsh et al.^44 Take out E16 mouse embryos, cut the head and place them into ice-cold Ca/Mg-free Hank Balance Salt Solution (HBSS) with papain (1 mg/ml). The brain is dissected out and place scalpel along the dorsal midline between the two cerebral hemispheres but slightly deviate towards to the side as it cut. This will give a clean cerebral cortex. Peel out the meninges gently without touching the medial side of the cortex where the hippocampus is located. Cut out the cortex with curved fine surgical scissors and collect them in ice-cold HBSS. The cortical tissue is replaced in papain HBSS solution for 15-20 minutes at room temperature to soften up the tissues. Transfer them to papain-inhibitor solution for another 5 minutes at room temperature and finally back to 2 ml ice-cold HBSS. Fisherbran 12-546 (18CIR-2) coverglasses in 12-well plate are coated with PEI containing laminin overnight. […]

[2] = Stopped-flow Trp fluorescence of saposin C/liposome complex formation; format: binding; details: PS(18:1,1) or BPS vesicles
Source text: To investigate temporal and spatial interactions of saposins and liposomal membrane, fluorescence stopped-flow and quenching approaches are used with Trp as the intrinsic fluorescence probe of the saposins. These experiments allow identification of regional interactions between saposins and lipid bilayers, and also the kinetics of their binding.
This binding induces change is lipid-concentration dependent and requires at least one unsaturated fatty acid chain. To evaluate the kinetics of this interaction, stopped-flow experiments are conducted the change in fluorescence during saposin C/liposome complex formation is monitored. When saposin C(0W) is mixed with PS(18:1,1) or BPS vesicles, fluorescence of Trp is increased, but the time course of this change is undetectable due to limitation of the machine's capability. Apparently, the interaction of saposin C and unsaturated PS containing membranes occurs within at least 10 ms.

acid β-glucosidase = target: T1, acid β-glucosidase (Homo sapiens, UniProt P04062); assay: Activation of acid β-glucosidase in liposomal reconstitution system; format: biochemical
T1 sequence (P04062 40-536): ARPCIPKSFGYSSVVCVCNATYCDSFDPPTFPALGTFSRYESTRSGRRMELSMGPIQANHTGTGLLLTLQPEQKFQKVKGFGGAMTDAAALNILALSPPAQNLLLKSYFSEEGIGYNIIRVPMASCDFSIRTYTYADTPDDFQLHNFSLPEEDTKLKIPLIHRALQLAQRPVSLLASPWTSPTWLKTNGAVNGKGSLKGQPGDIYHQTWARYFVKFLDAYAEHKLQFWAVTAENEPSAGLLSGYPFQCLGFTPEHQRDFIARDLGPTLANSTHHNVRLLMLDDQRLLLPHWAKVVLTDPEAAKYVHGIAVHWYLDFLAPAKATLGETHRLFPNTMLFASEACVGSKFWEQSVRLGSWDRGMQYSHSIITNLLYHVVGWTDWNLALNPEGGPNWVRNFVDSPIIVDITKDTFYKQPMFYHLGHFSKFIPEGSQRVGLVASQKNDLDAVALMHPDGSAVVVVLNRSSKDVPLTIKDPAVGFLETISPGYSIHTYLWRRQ
Procedure: Functional saposins were overexpressed in BL21(DE3) cells using a pET 21a series vector. Following IPTG induction at 37° C. or 30° C., large amounts of saposins containing His•Tag were found in the soluble fraction of the disrupted cells. These were conveniently purified to electrophoretic homogeneity on nickel-loaded columns. Alternatively, saposins without His•Tag were generated by introducing a stop codon after protein coding region, and then purified using immuno-affinity columns with T7-taq monoclonal antibody. […] Circular dichroism spectra, light scattering, and ES_MS analyses were used to evaluate the physical properties of the purified saposins, such as aggregation status and molecular weight. Trp-saposins without His•Tag were also generated for necessary control experiments. The functional integrity of recombinant saposin C is determined using delipidated and homogenous acid β-glucosidase in a liposomal reconstitution system and in neuritogenic assays. Recombinant saposin B function is determined using a sulfatide binding assay.

[3] = Vesicle size change determination (N4 plus submicron particle sizer)
Source text: The amino acid residues 51-67 are necessary, but not sufficient, for its optimal enzymatic activation function. The disulfide structure and conformational alteration of saposin C upon lipid binding are also required for this activity. Three approaches are used for this study: (1) stopped-flow monitoring reduction of self-quenching resulting from fusion of fluorescence probe-containing vesicle with non-fluorescent vesicle induced by saposin C; (2) monitoring the lipid vesicle size changes upon addition of saposin C to vesicles, the size distribution as determined using N4 plus submicron particle sizer (Coulter Co.); (3) monitoring intrinsic fluorescence of Trp-saposin C change during liposomal fusion.
Electron microscopy (EM) is used for vesicle fusion analysis, since the size of fused vesicles is bigger than those of non-fused. N4 plus submicron particle size is used to estimate particle sizes in the range of 3 nm to 3 um since most liposomes fit in this range. Sonication conditions with a cup sonicator give mono-dispersed BPS-liposomes with ˜200 nm in size. Upon addition of saposin C, these vesicles change to a larger size up to 2-3 um. The size increase is related to vesicles fusion as shown by the above dequenching experiments.
Saposin C promotes the size changes at ˜50 nM concentration. To define the regions responsible for this fusion property, peptides containing only 50% of the NH2-terminal or 50% of the COOH-terminal halves in saposin C are tested. Both peptides show fusion activity.

[4] = Fusion mechanism study with preformed saposin C-PS(18:1,1) liposome complexes
Procedure: Protein conformational changes are thought to play a role in protein-mediated membrane fusion. This fusion mechanism is evaluated using saposin C-dependent membrane fusion. First, saposin C-PS(18:1,1) liposome complexes are formed. In this saposin C-anchored membrane, protein conformation is altered. This complex is stable from pH 3 to 10, and in low concentrations of SDS solution.
Since the Trp in saposin C(0W) is embedded inside of lipid bilayer, the change of its signal is indicative of that the surrounding environment of Trp has been changed. After about 20 to 30 ms, Trp fluorescence signal decreases to the starting level. […] Shortly after this, the signal drops back to starting level signaling on end of the fusion process. […] Therefore, a conformational change of saposin C upon lipid binding is […] for its fusogenic activity.

[5] = R18 dequenching stopped-flow membrane fusion assay; details: R18-labeled and unlabeled PS(18:1,1) vesicles
Source text: Fluorescence probes have been widely used to determine membrane fusion, such as fluorescence dequenching, and fluorescence resonance energy transfer (FET), and can be used for quantitative and kinetics analyses. The dequenching approach is used to investigate saposin C's fusogenic activity. Octadecyl rhodamine B (R18) is selected as fluorescence probe and is entrapped in internal aqueous compartment of liposomal vesicles by co-sonication with BPS or PS(18:1,1).
Fluorescence increase (dequenching) of R18 occurs upon R18 concentration decreases. After non-labeled and labeled vesicles fuse, the R18 concentration is diluted, resulting in an increase in intensity of fluorescence. R18-labeled vesicles (lipid:R18=96:4, mol:mol) are mixed with the same lipid vesicles without fluorescence probe. Stopped-flow assays are conducted to quickly mix these vesicles with saposin C or Ca^2+ ion. Time-trace curves are generated for kinetic analysis.

Question: For “EVCEFLVKEVTKLIDNNKTEKEILDAFDKMCSKLP [Saposin E6-P40, SapC peptide E6-P40]”, which tumor-homing function (tumors) is on record?
Answer: tumor-homing function

Question: For “KSLSEECQEVVDTYGSSILSILLEEVSPELVCSMLHLCSG [Saposin K41-G80, SapC peptide K41-G80]”, which tumor-homing function (tumors) is on record?
Answer: tumor-homing function

Question: With “SPELVCSMLHLCSG [Saposin S67-G80, SapC peptide S67-G80]” as the molecule, how does the tumor-homing function (tumors) read?
Answer: tumor-homing function

Question: With EKEILDAFDKMCSKLPK [Saposin E24-K41] as the molecule, how does the tumor-homing function (tumors) read?
Answer: optimal tumor-homing function

Question: With FDKMCSKLPK [F32 to K41] as the molecule, how does the tumor-homing function (tumors) read?
Answer: tumor-homing function

B1: Saposin C: saposin C (SapC, a small lysosomal protein, 80 AA); recombinant, produced in E. coli (protein)
chain: SDVYCEVCEFLVKEVTKLIDNNKTEKEILDAFDKMCSKLPKSLSEECQEVVDTYGSSILSILLEEVSPELVCSMLHLCSG
modifications: left off: small tags and cut ends
notes: saposin C (SapC, a small lysosomal protein, 80 AA); recombinant, produced in E. coli
Question: Which results are given for B1?
Answer: transport into neurons [1]: transported into the cultured mouse cortical and hippocampal neurons; time within which interaction with unsaturated PS containing membranes occurs [2]: ≤ 10 ms; activation of acid β-glucosidase (acid β-glucosidase; purified recombinant protein): excellent activation; concentration that promotes the size changes [3]: ~50 nM; vesicle size upon addition of saposin C ([3]; mono-dispersed BPS-liposomes of ˜200 nm before addition): 2-3 um; vesicle size change ([3]; pH 4.7, 10 min period): enlarges vesicle size; vesicle size change ([3]; pH 7.4, 10 min period): not; fusogenic activity when bound to lipid membrane [4]: retains the fusogenic activity; kinetics of induced membrane fusion [5]: the same kinetics as those with Ca^2+

B2: saposin C(S37W): saposin C with a Trp at residue 37 (i.e., in the middle) (protein, UniProt P07602 311-390, looked up, variant S37W)
Saposin-C: SDVYCEVCEFLVKEVTKLIDNNKTEKEILDAFDKMCWKLPKSLSEECQEVVDTYGSSILSILLEEVSPELVCSMLHLCSG
modifications: Saposin-C
Question: Which “effect of Trp substitution on activation properties” value (acid β-glucosidase) does the source give for B2 here?
Answer: no effect
